# According to US20100047893:
# How the values were obtained:
# [1] = target: mixed bovine histones (Sigma)
protein,measurement,setting,value
GST-TbPRMT7 (protein) MPPKQHRHQKKDKNDNALQNTIGFVPPGATLASVSGYRPPDAFVNRIDRNIPVPARLRHTPVSLIEAVNDFHYAMMNDEERNNFYYEVLKKHVTPETGVLEIGAGSGLLSLMAAKLGAKWVVAVEGSEELAKLARENIRANNMEHQVKVLHMMSTELKSKHLPEPPDVLLSEIFGTMMLGESALDYVVDVRNRLLKPTTKIIPQFGTQYAVPIECDALHRISSVSGWRDLDLKHMMTLQDTVSIVFAKHYGIRMNSVNFRRLSDPIELFRVDFSSSNRNDIPRRKHFDVVAKESGTAHAMLFYWKVTDDEFVMSTDPEDTVNNFPRDMQWGQALQLLDASNGPLPTPVVFTEGKNYNFECNFSGDRVILHMQLCPESGNGEMTECEGKTT,methylarginine derivatives by cation exchange chromatography after 3H-AdoMet reaction,RBP16,only monomethylargnine produced with either histone (B) or RBP16 (C) substrate
same,"protein arginine methyltransferase activity (3H-AdoMet, SDS-PAGE, fluorography)","histone H3, P68432",the recombinant enzyme possesses protein arginine methyltransferase activity and utilizes histone H3 as a substrate
same,methylarginine derivatives by cation exchange chromatography after 3H-AdoMet reaction,[1],only monomethylargnine produced with either histone (B) or RBP16 (C) substrate
TbPRMT7-ProtC (protein) MPPKQHRHQKKDKNDNALQNTIGFVPPGATLASVSGYRPPDAFVNRIDRNIPVPARLRHTPVSLIEAVNDFHYAMMNDEERNNFYYEVLKKHVTPETGVLEIGAGSGLLSLMAAKLGAKWVVAVEGSEELAKLARENIRANNMEHQVKVLHMMSTELKSKHLPEPPDVLLSEIFGTMMLGESALDYVVDVRNRLLKPTTKIIPQFGTQYAVPIECDALHRISSVSGWRDLDLKHMMTLQDTVSIVFAKHYGIRMNSVNFRRLSDPIELFRVDFSSSNRNDIPRRKHFDVVAKESGTAHAMLFYWKVTDDEFVMSTDPEDTVNNFPRDMQWGQALQLLDASNGPLPTPVVFTEGKNYNFECNFSGDRVILHMQLCPESGNGEMTECEGKTT,"in vitro methylation (3H-AdoMet, fluorography)",RBP16,TbPRMT7-ProtC strongly methylated both histones and RBP16
same,"in vitro methylation (3H-AdoMet, fluorography)",[1],TbPRMT7-ProtC strongly methylated both histones and RBP16
recombinant TbPRMT7 (protein) MPPKQHRHQKKDKNDNALQNTIGFVPPGATLASVSGYRPPDAFVNRIDRNIPVPARLRHTPVSLIEAVNDFHYAMMNDEERNNFYYEVLKKHVTPETGVLEIGAGSGLLSLMAAKLGAKWVVAVEGSEELAKLARENIRANNMEHQVKVLHMMSTELKSKHLPEPPDVLLSEIFGTMMLGESALDYVVDVRNRLLKPTTKIIPQFGTQYAVPIECDALHRISSVSGWRDLDLKHMMTLQDTVSIVFAKHYGIRMNSVNFRRLSDPIELFRVDFSSSNRNDIPRRKHFDVVAKESGTAHAMLFYWKVTDDEFVMSTDPEDTVNNFPRDMQWGQALQLLDASNGPLPTPVVFTEGKNYNFECNFSGDRVILHMQLCPESGNGEMTECEGKTT,in vitro methylation,RBP16,Results indicate methylation occurred
same,"in vitro methylation (3H-AdoMet, SDS-PAGE, fluorography)",GST,"Of the eight substrates tested, only GST was not methylated"
same,in vitro methylation,[1],Results indicate methylation occurred
